As usually defined, the Ki is a measure of affinity in units of concentration, obtained from inhibition or displacement.

The values below come from patent US5854388A, “Angiotensin IV peptides and receptor” (Washington State University Research Foundation, priority 1994, dated 1998).

Data set [1] has as its system rats. The data set can be described thus: Passive avoidance conditioning after icv injection. The data set is classed as in vivo, rat.
Data set [2] concerns the target T1, AT1 receptor (AII receptor) (Bos taurus, UniProt P25104).
T1 construct: from tissue; host or cells: bovine adrenal cortex membranes
T1 sequence (P25104 1-359): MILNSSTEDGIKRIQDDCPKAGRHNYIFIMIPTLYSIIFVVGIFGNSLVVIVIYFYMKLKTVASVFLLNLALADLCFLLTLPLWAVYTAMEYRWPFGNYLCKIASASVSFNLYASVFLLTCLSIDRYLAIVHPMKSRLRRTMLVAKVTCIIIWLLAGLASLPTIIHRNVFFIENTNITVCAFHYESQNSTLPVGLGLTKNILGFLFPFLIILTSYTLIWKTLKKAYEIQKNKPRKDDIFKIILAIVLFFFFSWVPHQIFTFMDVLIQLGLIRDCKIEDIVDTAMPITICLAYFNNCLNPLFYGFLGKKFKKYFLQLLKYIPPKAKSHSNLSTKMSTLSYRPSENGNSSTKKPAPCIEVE
The data set is classed as binding, bovine. Conditions: 37° C., 2 h, HPLC.

The target in data set [3] is T2, AT4 receptor (Cavia porcellus, UniProt H0VNM7).
T2 sequence (H0VNM7 1-1025): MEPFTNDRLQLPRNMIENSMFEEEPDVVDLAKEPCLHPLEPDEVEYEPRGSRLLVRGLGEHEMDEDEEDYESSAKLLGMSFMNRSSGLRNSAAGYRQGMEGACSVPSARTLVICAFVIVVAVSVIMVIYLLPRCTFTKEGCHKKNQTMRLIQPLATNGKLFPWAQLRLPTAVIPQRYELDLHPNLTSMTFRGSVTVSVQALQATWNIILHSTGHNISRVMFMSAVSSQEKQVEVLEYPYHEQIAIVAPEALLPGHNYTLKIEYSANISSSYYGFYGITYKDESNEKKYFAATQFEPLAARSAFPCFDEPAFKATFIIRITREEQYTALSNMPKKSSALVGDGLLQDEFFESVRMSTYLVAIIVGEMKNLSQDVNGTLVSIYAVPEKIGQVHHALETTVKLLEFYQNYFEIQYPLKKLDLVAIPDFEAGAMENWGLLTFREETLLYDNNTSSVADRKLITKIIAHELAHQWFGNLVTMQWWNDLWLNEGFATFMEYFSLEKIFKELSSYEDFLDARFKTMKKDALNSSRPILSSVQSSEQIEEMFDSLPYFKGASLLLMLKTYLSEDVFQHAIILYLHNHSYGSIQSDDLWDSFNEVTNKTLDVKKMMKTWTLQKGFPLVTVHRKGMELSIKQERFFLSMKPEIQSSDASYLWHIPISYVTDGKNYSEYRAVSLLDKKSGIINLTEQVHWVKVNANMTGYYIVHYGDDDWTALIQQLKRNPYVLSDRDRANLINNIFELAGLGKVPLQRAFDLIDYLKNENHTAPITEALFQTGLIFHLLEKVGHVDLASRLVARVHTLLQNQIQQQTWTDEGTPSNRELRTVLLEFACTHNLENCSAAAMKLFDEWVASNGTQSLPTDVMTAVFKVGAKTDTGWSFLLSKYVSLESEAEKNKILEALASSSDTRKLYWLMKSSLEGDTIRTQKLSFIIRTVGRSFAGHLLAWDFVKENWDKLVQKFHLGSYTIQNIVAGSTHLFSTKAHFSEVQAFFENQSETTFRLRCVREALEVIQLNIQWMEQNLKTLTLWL
The data set can be described thus: 125I-AIV binding and competition, guinea pig hippocampus membranes. Conditions: competition of 0.6 nM 125I-AIV.

Data set [4] has as its target T3, AT4 receptor (Bos taurus, UniProt F1N1Q8).
T3 sequence (F1N1Q8 1-1022): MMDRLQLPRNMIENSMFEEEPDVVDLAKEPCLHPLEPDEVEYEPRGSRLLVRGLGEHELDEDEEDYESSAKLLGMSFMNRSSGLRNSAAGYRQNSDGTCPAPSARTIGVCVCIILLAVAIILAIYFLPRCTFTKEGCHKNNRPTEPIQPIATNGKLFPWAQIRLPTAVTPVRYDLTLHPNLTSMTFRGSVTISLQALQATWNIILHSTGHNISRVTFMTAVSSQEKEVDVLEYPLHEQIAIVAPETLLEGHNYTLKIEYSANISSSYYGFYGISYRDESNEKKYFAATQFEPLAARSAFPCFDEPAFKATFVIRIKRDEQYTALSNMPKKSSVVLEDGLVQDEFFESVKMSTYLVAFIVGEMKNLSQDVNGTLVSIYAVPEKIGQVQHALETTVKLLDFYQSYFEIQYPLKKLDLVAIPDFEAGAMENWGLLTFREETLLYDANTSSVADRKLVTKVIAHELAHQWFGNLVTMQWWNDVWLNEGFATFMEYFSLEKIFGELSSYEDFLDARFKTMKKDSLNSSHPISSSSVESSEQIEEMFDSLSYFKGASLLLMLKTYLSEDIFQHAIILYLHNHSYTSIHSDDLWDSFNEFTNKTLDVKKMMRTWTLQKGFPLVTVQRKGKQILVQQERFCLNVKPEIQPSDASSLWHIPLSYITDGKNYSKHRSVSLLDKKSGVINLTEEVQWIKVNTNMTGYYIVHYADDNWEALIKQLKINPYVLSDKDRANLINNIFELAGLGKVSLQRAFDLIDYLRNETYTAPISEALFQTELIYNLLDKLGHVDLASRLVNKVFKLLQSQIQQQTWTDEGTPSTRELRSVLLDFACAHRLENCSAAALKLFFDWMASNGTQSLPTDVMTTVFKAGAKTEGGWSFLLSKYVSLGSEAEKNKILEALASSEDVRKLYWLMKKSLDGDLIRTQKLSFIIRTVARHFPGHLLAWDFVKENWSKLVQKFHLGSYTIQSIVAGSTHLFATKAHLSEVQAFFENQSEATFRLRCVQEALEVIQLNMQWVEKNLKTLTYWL
The data set can be described thus: 125I-AIV binding and competition, bovine adrenal cortical membranes. The following applies: read-out: 125I-AIV Binding (Ki); competition.

Data set [5] can be described thus: Stability of angiotensin peptides in binding buffer (reverse phase HPLC). Conditions: 4 h at 37° C. The data set is classed as physicochemical. As for the experimental part:
Binding studies were carried out in a buffer (below) containing an extensive cocktail of inhibitors that was designed to minimize metabolism of both the receptor and the test ligand, i.e., the buffer contained 5 mM EDTA, 0.2% BSA, […] Bestatin, 50 μM Plummer's inhibitor, and 100 μM PMSF.

Data set [6] relates to rat kidney. Briefly: Renal cortical blood flow (laser doppler) and arterial pressure after infusion into the renal artery. It counts as in vivo. Conditions: infusion into renal artery.

Regarding “Asp1 Arg2 Val3 Tyr4 Ile5 His6 Pro7 Phe8 (DRVYIHPF) [AII]”, in data set [1], the “passive avoidance latency / cognitive effect (in words)” value is “no specific effect”. Further, in data set [2], the “overall hydrolysis under conditions of the assay” value is “less than 2%”. The Ki in data set [3] and in data set [4] was above 1000 nM each time. For the same substance, the “hydrolysis in binding buffer” value in data set [5] was “less than 10%”. In addition, the “effect on renal blood flow (in words)” value in data set [6] is listed as “dramatic decrease in renal blood flow”.
